Positions count from the first letter of the chain named.
B1: 82H02 (bispecific TCE of Table 29) (bispecific antibody, V domains shown)
VH: EVQLLESGGGLVQPGGSLRLSCAASGFTFTSYAMSWVRQAPGKGLEWVSTISGSGGGTYYTDSVKGRFTISRDNSKNTLYLQMNSLRAEDTAVYYCAQGSSIFDYWGQGTLVTVSS
VL: EIVLTQSPATLSLSPGERATLSCRASQSVSSYLAWYQQKPGQAPRLLIYDASNRATGIPARFSGSGSGTDFTLTISSLEPEDFAVYYCQQRSNWPPCTFGQGTRLEIK
B2: 82H02 VL1.04 (bispecific TCE of Table 29) (bispecific antibody, V domains shown)
VH: B1 VH
VL: not shown
notes: also called 82H02 v1.04
B3: 82H02 VL1.06 (low) (bispecific TCE of Table 29) (bispecific antibody, V domains shown)
VH: B1 VH
VL: B1 VL with C97F
notes: also called 82H02 v1.06
B4: 82H02 VL1.03 (bispecific TCE of Table 29) (bispecific antibody, V domains shown)
VH: B1 VH
VL: B1 VL with C97Q
notes: also called 82H02 v1.03
B5: 82H02 VL1.09 (bispecific TCE of Table 29) (bispecific antibody, V domains shown)
VH: B1 VH
VL: B1 VL with C97V
notes: also called 82H02 v1.09
B6: 82H02 VL1.07 (high) (bispecific TCE of Table 29) (bispecific antibody, V domains shown)
VH: B1 VH
VL: B1 VL with C97S
notes: also called 82H02 v1.07
B7: 82H02 VL1.05 (bispecific TCE of Table 29) (bispecific antibody, V domains shown)
VH: B1 VH
VL: B1 VL with C97L
notes: also called 82H02 v1.05
B8: 82H02 VL1.02 (bispecific TCE of Table 29) (bispecific antibody, V domains shown)
VH: B1 VH
VL: B1 VL with C97R
notes: also called 82H02 v1.02
B9: 82H02 VL1.08 (bispecific TCE of Table 29) (bispecific antibody, V domains shown)
VH: B1 VH
VL: B1 VL with C97Y
notes: also called 82H02 v1.08
B10: 69A02 (bispecific TCE of Table 29) (bispecific antibody, V domains shown)
VH: QVTLKESGPTLVKPTQTLTLTCSFSGFSITTSGVSVGWIRQPPGKALEWLALIYWDDDKRYSPSLKSRLTITRDTSKNQVVLTMTNMDPVDTATYYCAHAPRYTPGGYFDYWGQGTLVTVSS
VL: ETTLTQSPATLSVSPGETATLSCRASQSVSSNLAWYQQKPGQAPRLLIYGASTRATGIPATFSGSGSGTEFTLTISSLQSEDFAIYYCQQYKNWPPAFGGGTELEIK
B11: Parental 1F3.5 (CD3-binding bispecific TCE of Table 30) (bispecific antibody, V domains shown)
VH: EVQLVESGGGLVQPGGSLRLSCAASGFTFNTYAMNWVRQAPGKGLEWVARIRSKYNNYATYYADSVKDRFTISRDDSKNTLYLQMNSLRAEDTAVYYCVRHGNFGNSYVSWFAYWGQGTMVTVSS
VL: QAVVTQEPSLTVSPGGTVTLTCRSSTGAVTTSNYANWVQQKPGQAPRGLIGGTNKRAPGTPARFSGSLLGGKAALTLSGVQPEDEAEYYCALWYSNLWVFGGGTKLTVLG
notes: also called IF3.5
B12: 1F3.5 VL1.00-VH1.05 (CD3-binding bispecific TCE of Table 30) (bispecific antibody, V domains shown)
VH: EVQLVESGGGLVQPGGSLKLSCAASGFTFNTYAMNWVRQASGKGLEWVGRIRSKYNNYATYYADSVKGRFTISRDDSKNTAYLQMNSLKTEDTAVYYCVRHGNFGNAYVSFAYWGQGTMVTVSS
VL: B11 VL
notes: CD3 Fab arm only; VL1.00 read as the parental 1F3.5 light chain
B13: 1F3.5 VL1.00-VH1.04 (CD3-binding bispecific TCE of Table 30) (bispecific antibody, V domains shown)
VH: B11 VH with R19K, P41S, A49G, D68G, R89K, A90T, N106E
VL: B11 VL
notes: as for B12
B14: 1F3.5 VL1.01-VH1.05 (CD3-binding bispecific TCE of Table 30) (bispecific antibody, V domains shown)
VH: B12 VH
VL: B11 VL with A2T, R23A, G48A
notes: CD3 Fab arm only
B15: 1F3.5 VL1.01-VH1.01 (low) (CD3-binding bispecific TCE of Table 30) (bispecific antibody, V domains shown)
VH: B11 VH with R19K, P41S, A49G, D68G, R89K, A90T
VL: B11 VL with A2T, R23A, G48A
notes: CD3 Fab arm only; also called 1F3.5-VH1.01-VL1.01
B16: 1F3.5 VL1.01-VH1.03 (CD3-binding bispecific TCE of Table 30) (bispecific antibody, V domains shown)
VH: B11 VH with R19K, P41S, A49G, D68G, R89K, A90T, N106A
VL: B11 VL with A2T, R23A, G48A
notes: CD3 Fab arm only
B17: 1F3.5 VL1.01-VH1.04 (CD3-binding bispecific TCE of Table 30) (bispecific antibody, V domains shown)
VH: B11 VH with R19K, P41S, A49G, D68G, R89K, A90T, N106E
VL: B11 VL with A2T, R23A, G48A
notes: CD3 Fab arm only
B18: 1F3.5 VL1.01-VH1.00 (CD3-binding bispecific TCE of Table 30) (bispecific antibody, V domains shown)
VH: B11 VH
VL: B11 VL with A2T, R23A, G48A
notes: CD3 Fab arm only; VH1.00 read as the parental 1F3.5 heavy chain
B19: 1F3.5 VL1.01-VH1.02 (CD3-binding bispecific TCE of Table 30) (bispecific antibody, V domains shown)
VH: B11 VH with R19K, P41S, A49G, D68G, L81A, R89K, A90T
VL: B11 VL with A2T, R23A, G48A
notes: CD3 Fab arm only
B20: 1F3.5 VL1.00-VH1.01 (CD3-binding bispecific TCE of Table 30) (bispecific antibody, V domains shown)
VH: B11 VH with R19K, P41S, A49G, D68G, R89K, A90T
VL: B11 VL
notes: CD3 Fab arm only
B21: 1F3.5 VL1.00-VH1.03 (high) (CD3-binding bispecific TCE of Table 30) (bispecific antibody, V domains shown)
VH: B11 VH with R19K, P41S, A49G, D68G, R89K, A90T, N106A
VL: B11 VL
notes: CD3 Fab arm only; VL1.00 read as the parental 1F3.5 light chain; also called 1F3.5-VH1.03
B22: 1F3.5 VL1.00-VH1.02 (CD3-binding bispecific TCE of Table 30) (bispecific antibody, V domains shown)
VH: B11 VH with R19K, P41S, A49G, D68G, L81A, R89K, A90T
VL: B11 VL
notes: as for B12

Experiments:
[1] = biological target: T1, recombinant human ROR1 extracellular domain protein (human, UniProt Q01973 30-406); assay: biolayer interferometry, TCE immobilized
T1 construct: also called Human/Cyno ROR1
Excerpt: (§1) This example describes biolayer interferometry experiments that were used to determine the binding affinities of bispecific TCEs and sequence optimized variants of the present disclosure.

[2] = biological target: T2, recombinant human CD3ε/δ heterodimer SEED Fc fusion protein (human, UniProt P07766 23-126; P04234 22-105); assay: biolayer interferometry, TCE immobilized
T2 construct: not shown: SEED Fc arm, not specified
Excerpt: as §1

T2 sequence (P07766 23-126, stated change not applied, chain 1 of 2): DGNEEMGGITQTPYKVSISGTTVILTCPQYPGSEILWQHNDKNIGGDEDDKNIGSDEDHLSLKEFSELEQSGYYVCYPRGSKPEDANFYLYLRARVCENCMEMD
T2 sequence (P04234 22-105, stated change not applied, chain 2 of 2): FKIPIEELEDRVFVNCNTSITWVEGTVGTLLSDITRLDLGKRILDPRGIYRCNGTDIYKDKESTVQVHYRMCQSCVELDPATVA

Binder | Kd [1] | Kd [2]
B1 | 5.4 nM | –
B2 | 50.7 nM | –
B3 | 99 nM | –
B4 | 475 nM | –
B5 | 160 nM | –
B6 | 4.2 nM | –
B7 | 154 nM | –
B8 | 122 nM | –
B9 | 166 nM | –
B10 | 3.5 nM | –
B11 | – | 2.7 nM
B12 | – | 8.2 nM
B13 | – | 6.5 nM
B14 | – | 59.2 nM
B15 | – | 42 nM
B16 | – | 84.8 nM
B17 | – | 74.2 nM
B18 | – | 62.3 nM
B19 | – | 47.1 nM
B20 | – | 2.9 nM
B21 | – | 4.6 nM
B22 | – | 5.5 nM

— patent publication US20240343800A1 (Merck KGaA, published 2024)
